Consider one substance from article PMC12000455.

The target in this assay is Slik coiled-coil C-terminal domain (Slik^CCD) (Drosophila). The experiment in a line: SEC; purified Slik^CCD on a Superdex 75 10/300 column in 20 mM Tris-HCl pH 7.5, 150 mM NaCl, 2 mM DTT; elution peak at 95.45 kDa.

Usually stoichiometry N stands for a count of units in the complex or per binding partner.

Substance “Slik coiled-coil C-terminal domain (Slik^CCD) (domain or fragment)” had a stoichiometry N of 2.
